US20050084890A1, “High-throughput screening assay for inhibitors of replication protein A” (priority 2003, published 2005)

Key:
RPA = target: T1, RPA (Homo sapiens, UniProt P27694); assay: Homogeneous high-throughput fluorescence assay of RPA's DNA binding activity (96-well); details: blind experiment; 5, 25 or 50 pmol competitor in 3 of 96 wells
T1 construct: made in house; host or cells: Escherichia coli
Method: Specifically, the percentage inhibition is calculated by taking the difference between the fluorescence values of reactions containing DNA and RPA and reactions containing DNA, RPA, and the test compound and dividing by the difference between the fluorescence values of reactions with DNA and RPA and the fluorescence of the DNA alone. This value is then multiplied by 100 to give percentage inhibition. The measurement is typically reported as fluorescence above the background fluorescence of the reporter alone. In one aspect the of the assay the DNA is single stranded DNA.
In accordance with one exemplary embodiment of the present invention, a homogeneous high-throughput screening assay is provided that employs a novel fluorescent reporter for measuring RPA's DNA binding activity. […] The fluorescence is then quantified in a 96-well plate fluorescence spectrophotometer. […]
RPA (10 pmol) was added to each well of a 96-well plate in a volume of 100 μl. […] Plates were read in a fluorometer. Fluorescence emission was read at 518 nm following excitation at […]. Fluorescence was read using a 96-well plate reader with a 2.5 nm excitation slit width and a 5 nm emission slit width. […] The data is presented as fluorescence above the background fluorescence of the reporter alone unless indicated otherwise. […]

[1] = target: T2, Replication Protein A (RPA) (Homo sapiens, UniProt P27694;P15927;P35244 P27694:1-616,P15927:1-270,P35244:1-121); assay: fluorescence enhancement (ex 498 nm, em 518 nm); hyperbolic curve saturating at 1:1 RPA:DNA; details: tags: expressed in E. coli from vector pdT11 (Marc Wold); label: 5' fluorescein
T2 sequence (P27694 whole entry, chain 1 of 3): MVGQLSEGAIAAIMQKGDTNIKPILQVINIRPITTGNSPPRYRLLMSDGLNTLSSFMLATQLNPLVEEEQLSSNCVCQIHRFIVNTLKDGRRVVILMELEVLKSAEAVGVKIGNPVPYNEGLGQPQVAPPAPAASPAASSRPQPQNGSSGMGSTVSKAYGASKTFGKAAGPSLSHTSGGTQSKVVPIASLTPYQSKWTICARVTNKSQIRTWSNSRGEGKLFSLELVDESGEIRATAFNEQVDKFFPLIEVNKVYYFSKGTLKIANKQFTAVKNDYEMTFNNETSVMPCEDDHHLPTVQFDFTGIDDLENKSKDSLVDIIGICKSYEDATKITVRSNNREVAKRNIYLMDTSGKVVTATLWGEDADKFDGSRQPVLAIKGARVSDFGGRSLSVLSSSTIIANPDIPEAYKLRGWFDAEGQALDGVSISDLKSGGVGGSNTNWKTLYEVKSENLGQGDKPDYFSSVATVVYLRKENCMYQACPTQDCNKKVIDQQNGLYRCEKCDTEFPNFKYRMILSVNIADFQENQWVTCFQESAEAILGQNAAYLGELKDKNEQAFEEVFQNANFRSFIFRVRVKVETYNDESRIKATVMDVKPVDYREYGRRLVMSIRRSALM
T2 sequence (P15927 whole entry, chain 2 of 3): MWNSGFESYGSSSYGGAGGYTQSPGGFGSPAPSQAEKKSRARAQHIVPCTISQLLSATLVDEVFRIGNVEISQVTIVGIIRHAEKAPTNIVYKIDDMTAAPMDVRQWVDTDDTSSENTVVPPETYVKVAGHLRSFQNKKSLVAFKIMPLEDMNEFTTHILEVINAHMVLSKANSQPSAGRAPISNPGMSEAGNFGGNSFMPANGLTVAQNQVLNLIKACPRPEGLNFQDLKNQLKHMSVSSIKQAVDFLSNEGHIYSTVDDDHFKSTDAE
T2 sequence (P35244 whole entry, chain 3 of 3): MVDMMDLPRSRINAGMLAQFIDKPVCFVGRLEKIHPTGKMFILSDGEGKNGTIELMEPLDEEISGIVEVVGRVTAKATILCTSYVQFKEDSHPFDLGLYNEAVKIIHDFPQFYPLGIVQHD
Method: In an effort to investigate the effect small molecules have on the interaction of RPA with DNA, an HTS assay was developed that relies on the use of a fluorescein-labeled ssDNA substrate. […] In an effort to optimize the detection, fluorescent excitation and emission wavelengths were tested along with varying slit widths and voltages. The optimal parameters were excitation at 498 nm and emission at […]. The optimal excitation and emission slit widths and voltage were 2.5 and 5 nm and 800 V, respectively.
In an attempt to test a large number of compounds simultaneously, the assay was converted to a 96-well plate format. In this assay, the fluorescein-labeled DNA was diluted into assay buffer and 100 μl were dispensed into each well. The fluorescence of each well was then read. Each well then received 100 μl RPA and the fluorescence of each well was read again. Percentage increase of fluorescence was then calculated from these two readings and is represented in FIG. 1.

[2] = target: T2, Replication Protein A (RPA); assay: competition; 5, 25 or 50 pmol unlabeled DNA inhibits RPA binding to the fluorescein-labeled reporter; details: tags: expressed in E. coli from vector pdT11 (Marc Wold)
Method: RPA (10 pmol) was added to each well of a 96-well plate in a volume of 100 μl. Individual compounds were added to each well followed by the fluorescent reporter. The final reaction volume was 200 μl. Plates were read in a fluorometer. Fluorescence emission was read at 518 nm following excitation at […]. Fluorescence was read using a 96-well plate reader with a 2.5 nm excitation slit width and a 5 nm emission slit width. To calculate the percentage inhibition, the difference between the fluorescence values of reactions containing DNA and RPA and […] the test compound was divided by the difference between the fluorescence values of reactions with DNA and RPA and the fluorescence of the DNA alone. This value was then multiplied by 100 to give percentage inhibition. The data is presented as fluorescence above the background fluorescence of the reporter alone unless indicated otherwise.
To determine the effectiveness of this assay, a blind experiment was performed in which 3 of the 96 wells were added to 5, 25, or 50 pmol DNA substrate that has the exact sequence of the fluorescent DNA reporter without the fluorescein label. This DNA would compete for RPA, therefore acting as an inhibitor. […] The effect of DMSO on reaction sensitivity and reproducibility was assessed and the results indicated no difference in assay sensitivity.

[3] = target: T2, Replication Protein A (RPA); assay: FP; polarization r max 0.23 without compound; saturation at about 15 pmol RPA in control as printed; details: tags: expressed in E. coli from vector pdT11 (Marc Wold); label: fluorescein
Method: To more precisely determine if the method of inhibition was via an interaction with DNA or RPA, fluorescence polarization experiments were conducted. Fluorescence polarization is a measure of the rate at which an object tumbles or rotates in three-dimensional space. In this experiment, a fluorescein-labeled dT₃₀ substrate DNA is employed which results in a baseline polarization that is increased upon RPA binding; to the DNA and slowing its rotation. Using this method, it can be determined if the interaction of the compound was with DNA or RPA by constructing binding isotherms varying RPA at a fixed concentration of DNA with and without the addition of specific compounds. Using fluorescence polarization, compounds that exert their inhibitory effect through an interaction with the DNA were capable of being identified. Fluorescence polarization was performed by titrating RPA into a reaction containing fluorescein-labeled dT₃₀ DNA in the presence and absence of 20 μM compound (FIG. 5). […] This conclusion is further supported by experiments performed measuring the effect of compound 1:51 on polarization of the DNA in the absence of RPA. In these reactions, the r value of the DNA plus compound was slightly greater than the r value of the DNA without compound.

T1 sequence (P27694 whole entry): as the sequence (P27694 whole entry, chain 1 of 3) above
T1 sequence (P15927 whole entry partner): as the sequence (P15927 whole entry, chain 2 of 3) above
T1 sequence (P35244 whole entry partner): as the sequence (P35244 whole entry, chain 3 of 3) above

“DNA substrate that has the exact sequence of the fluorescent DNA reporter without the fluorescein label: unlabeled 30 base ssDNA of SEQ ID NO: 1 sequence, competes for RPA, acting as an inhibitor (DNA GGGGAAGTAAGGACGCGGAAAGGATAGGGG; DNA, backbone not given here; unlabeled competitor ssDNA)” was tested, and the “inhibition of RPA binding to the fluorescein-labeled DNA” value (RPA) was “significant inhibition”.

GGGGAAGTAAGGACGCGGAAAGGATAGGGG (ssDNA) [30-base purine-rich reporter DNA]: binds [1].

GGGGAAGTAAGGACGCGGAAAGGATAGGGG (ssDNA) [30-base unlabeled competitor DNA]: binds [2].

TTTTTTTTTTTTTTTTTTTTTTTTTTTTTT (ssDNA, [NONE]) [dT30]: binds [3].
